Laboratory results reported in US20030211992A1 (published 2003).
Like-named read-outs stand apart in the source and are kept apart here. Positions of bridges follow the written chain, without caps; N, C: chain ends. No end group written: not given here.

Legend:
[1] = molecular target: T1, human IGFBP-1 (human, UniProt P08833 26-259); assay: competitive phage ELISA
T1 construct: biotinylated in the ELISA formats; amine-coupled to the chip in peptide kinetics
T1 sequence (looked up): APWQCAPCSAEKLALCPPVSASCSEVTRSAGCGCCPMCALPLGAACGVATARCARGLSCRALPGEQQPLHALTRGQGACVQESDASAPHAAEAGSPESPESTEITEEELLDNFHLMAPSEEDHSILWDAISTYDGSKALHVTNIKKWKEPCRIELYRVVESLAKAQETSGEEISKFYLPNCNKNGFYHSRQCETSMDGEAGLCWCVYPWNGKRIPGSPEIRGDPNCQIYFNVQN

[2] = molecular target: T2, recombinant human IGFBP-3 (human, UniProt P17936 28-291); assay: competitive phage ELISA
T2 construct: biotinylated and held on a streptavidin chip in the ALS experiment
T2 sequence (P17936 28-291 limits assumed): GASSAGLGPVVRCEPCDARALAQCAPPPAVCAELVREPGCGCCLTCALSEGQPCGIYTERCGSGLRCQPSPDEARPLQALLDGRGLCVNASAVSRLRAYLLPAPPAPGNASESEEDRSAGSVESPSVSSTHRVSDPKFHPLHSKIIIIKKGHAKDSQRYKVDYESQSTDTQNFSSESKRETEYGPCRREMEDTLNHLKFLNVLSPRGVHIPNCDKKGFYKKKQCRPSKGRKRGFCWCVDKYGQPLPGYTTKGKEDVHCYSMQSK

[3] = molecular target: T1, human IGFBP-1; assay: competitive phage ELISA; remark: listed apart in the source
[4] = molecular target: T2, recombinant human IGFBP-3; assay: competitive phage ELISA; remark: listed apart in the source
[5] = molecular target: T1, human IGFBP-1; assay: competitive phage ELISA; the reference itself
[6] = molecular target: T2, recombinant human IGFBP-3; assay: competitive phage ELISA; the reference itself
[7] = molecular target: T2, recombinant human IGFBP-3; assay: phage ELISA on IGFBP-3 plate, competitor IGF-1
Method: The plates were then washed ten times, as above, and a solution of rabbit anti-phage antibody mixed with a goat-anti-rabbit conjugate of horseradish peroxidase was added. After an incubation of 1 hour at room temperature, the plates were developed with a chromogenic substrate, o-phenylenediamine (Sigma). The reaction was stopped with addition of ½ volume of 2.5 M H₂SO₄. Optical density at 490 nm was measured on a spectrophotometric plate reader.
In each case, the phagemid clone was grown from a single colony overnight at 37° C. in a culture volume of 5 ml. The phage particles were precipitated and resuspended in 0.5 ml of PBS buffer.

[8] = molecular target: IGFBP-3/E3A/F49A IGF-1 binary complex (human) (UniProt P17936); assay: BIAcore, ALS dissociation from the IGFBP-3/IGF-1 complex
IGFBP-3/E3A/F49A IGF-1 binary complex (human), sequence (P17936 28-291, chain 1 of 2): as the sequence (P17936 28-291 limits assumed) above
IGFBP-3/E3A/F49A IGF-1 binary complex (human), sequence (chain, as listed by the source F49A F49A, chain 2 of 2): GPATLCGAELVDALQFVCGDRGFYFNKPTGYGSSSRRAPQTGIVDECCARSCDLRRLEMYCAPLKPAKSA

[9] = molecular target: IGFBP-3/F49A IGF-1 binary complex (human) (UniProt P17936); assay: as above
IGFBP-3/F49A IGF-1 binary complex (human), sequence (P17936 28-291, chain 1 of 2): as the sequence (P17936 28-291 limits assumed) above
IGFBP-3/F49A IGF-1 binary complex (human), sequence (chain, as listed by the source F49A F49A, chain 2 of 2): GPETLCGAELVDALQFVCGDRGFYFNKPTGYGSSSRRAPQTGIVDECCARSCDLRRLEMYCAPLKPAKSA

[10] = molecular target: T1, human IGFBP-1; assay: stated with the explant experiment
[11] = molecular target: T1, human IGFBP-1; assay: BIAcore inhibition of IGFBP-1 binding to IGF-1

IGF-1 G1S-A70V on phage (from UniProt P69168 267-424) (ligand)
IC50 [1]: 8.2 nM | IC50 [2]: 0.75 nM | IC50 [3]: 8.5 nM | IC50 [4]: 0.5 nM | relative IC50 (mut/G1S-A70V) [5]: 1 | relative IC50 (mut/G1S-A70V) [6]: 1

B1: peptide-phage clone 4D3.11 (g8 display) (peptide)
chain: VAWEVCWDRHDQGYICTTDSGGGSGGGAEGDDPAKAAFNSLQASATEYIGYAWAMVVVIVGATIGIKLFKKFTSKAS
notes: polyvalent on M13 phage
% inhibition of phage binding by 100 nM IGF-1 [7]: 5%

B2: peptide-phage clone 4D3.9 (g8 display) (peptide)
chain: ETVANCDCYMDLCLCYGSDRGGGSGGGAEGDDPAKAAFNSLQASATEYIGYAWAMVVVIVGATIGIKLFKKFTSKAS
notes: polyvalent on M13 phage
% inhibition of phage binding by 100 nM IGF-1 [7]: > 40%

B3: human acid-labile subunit (protein, UniProt P35858 28-605, looked up)
chain: ADPGTPGEAEGPACPAACVCSYDDDADELSVFCSSRNLTRLPDGVPGGTQALWLDGNNLSSVPPAAFQNLSSLGFLNLQGGQLGSLEPQALLGLENLCHLHLERNQLRSLALGTFAHTPALASLGLSNNRLSRLEDGLFEGLGSLWDLNLGWNSLAVLPDAAFRGLGSLRELVLAGNRLAYLQPALFSGLAELRELDLSRNALRAIKANVFVQLPRLQKLYLDRNLIAAVAPGAFLGLKALRWLDLSHNRVAGLLEDTFPGLLGLRVLRLSHNAIASLRPRTFKDLHFLEELQLGHNRIRQLAERSFEGLGQLEVLTLDHNQLQEVKAGAFLGLTNVAVMNLSGNCLRNLPEQVFRGLGKLHSLHLEGSCLGRIRPHTFTGLSGLRRLFLKDNGLVGIEEQSLWGLAELLELDLTSNQLTHLPHRLFQGLGKLEYLLLSRNRLAELPADALGPLQRAFWLDVSHNRLEALPNSLLAPLGRLRYLSLRNNSLRTFTPQPPGLERLWLEGNPWDCGCPLKALRDFALQNPSAVPRFVQAICEGDDCQPPAYTYNNITCASPPEVVGLDLRDLSEAHFAPC
koff [8]: 0.0004 s⁻¹ | koff [9]: 0.00042 s⁻¹

CRAGPLQWLCEKYF-NH2 (disulfide 1-10 (inferred)) [BP1-16]
binding result [10]: binds

B4: peptide-phage clone 4D3.8 (g8 display) (peptide)
chain: SEEVCWPVAEWYLCNILGPGGGSGGGAEGDDPAKAAFNSLQASATEYIGYAWAMVVVIVGATIGIKLFKKFTSKAS
notes: polyvalent on M13 phage
% inhibition of phage binding by 100 nM IGF-1 [7]: > 40%

B5: peptide-phage clone 4C3.2 (g8 display) (peptide)
chain: ELDGWVCIKVGEQNLCYLAEGGGSGGGAEGDDPAKAAFNSLQASATEYIGYAWAMVVVIVGATIGIKLFKKFTSKAS
notes: polyvalent on M13 phage
% inhibition of phage binding by 100 nM IGF-1 [7]: > 40%

Ac-LEWLAEKYFE (linker 2-10 via 1,5‑diaminopentane) [(i+8)A]
fold potency reduction against BP1-01 [11]: > 200

B6: peptide-phage clone 4D3.12 (g8 display) (peptide)
chain: AEWAECWIAGDQLLCVGKDNGGGSGGGAEGDDPAKAAFNSLQASATEYIGYAWAMVVVIVGATIGIKLFKKFTSKAS
notes: polyvalent on M13 phage
% inhibition of phage binding by 100 nM IGF-1 [7]: > 40%
